Laboratory results: the Human Domainome abundance scans (Beltran et al. 2025)
± gives the uncertainty stated by the source.

B1: Tripartite motif-containing protein 49C, residues 87 to 133; numbered along this chain, P0CI26 (parent)
chain: SSEEQMCGTHRETKKIFCEVDRSLLCLLCSSSQEHRYHRHRPIEWAA

Variants of: B1
Experiment: abundance fitness (aPCA) (normalised: wild type 0, dead -1); higher = more abundant; growth selection in yeast, the domain comes from the species named
Details: Homo sapiens
With SSEEQDCGTHRETKKIFCEVDRSLLCLLCSSSQEHRYHRHRPIEWAA [M6D] the abundance fitness was -0.875 ± 0.24.
In the case of SSEEQACGTHRETKKIFCEVDRSLLCLLCSSSQEHRYHRHRPIEWAA [M6A], the abundance fitness is reported as -0.575 ± 0.11.
Work on SSEEQCCGTHRETKKIFCEVDRSLLCLLCSSSQEHRYHRHRPIEWAA [M6C] yielded an abundance fitness of -0.568 ± 0.17.
Variant SSEEQYCGTHRETKKIFCEVDRSLLCLLCSSSQEHRYHRHRPIEWAA [M6Y] has an abundance fitness of -0.344 ± 0.16.
SSEEQWCGTHRETKKIFCEVDRSLLCLLCSSSQEHRYHRHRPIEWAA [M6W] gave an abundance fitness of -0.651 ± 0.15.
In the case of SSEEQVCGTHRETKKIFCEVDRSLLCLLCSSSQEHRYHRHRPIEWAA [M6V], the abundance fitness is reported as -0.21 ± 0.089.
SSEEQQCGTHRETKKIFCEVDRSLLCLLCSSSQEHRYHRHRPIEWAA [M6Q] gave an abundance fitness of -0.273 ± 0.11.
In the case of SSEEQMWGTHRETKKIFCEVDRSLLCLLCSSSQEHRYHRHRPIEWAA [C7W], the abundance fitness is reported as -0.499 ± 0.27.
For SSEEQMFGTHRETKKIFCEVDRSLLCLLCSSSQEHRYHRHRPIEWAA [C7F], the abundance fitness was -0.957 ± 0.12.
Work on SSEEQMPGTHRETKKIFCEVDRSLLCLLCSSSQEHRYHRHRPIEWAA [C7P] yielded an abundance fitness of -0.598 ± 0.1.
SSEEQMQGTHRETKKIFCEVDRSLLCLLCSSSQEHRYHRHRPIEWAA [C7Q] showed an abundance fitness of -0.832 ± 0.18.
Variant SSEEQMTGTHRETKKIFCEVDRSLLCLLCSSSQEHRYHRHRPIEWAA [C7T] has an abundance fitness of -0.861 ± 0.11.
SSEEQMAGTHRETKKIFCEVDRSLLCLLCSSSQEHRYHRHRPIEWAA [C7A] gave an abundance fitness of -0.935 ± 0.17.
For SSEEQMVGTHRETKKIFCEVDRSLLCLLCSSSQEHRYHRHRPIEWAA [C7V], the abundance fitness was -0.722 ± 0.15.
Work on SSEEQMMGTHRETKKIFCEVDRSLLCLLCSSSQEHRYHRHRPIEWAA [C7M] yielded an abundance fitness of -0.718 ± 0.27.
SSEEQMHGTHRETKKIFCEVDRSLLCLLCSSSQEHRYHRHRPIEWAA [C7H] gave an abundance fitness of -0.429 ± 0.11.
Work on SSEEQMSGTHRETKKIFCEVDRSLLCLLCSSSQEHRYHRHRPIEWAA [C7S] yielded an abundance fitness of -0.636 ± 0.091.
Work on SSEEQMIGTHRETKKIFCEVDRSLLCLLCSSSQEHRYHRHRPIEWAA [C7I] yielded an abundance fitness of -0.797 ± 0.11.
SSEEQMDGTHRETKKIFCEVDRSLLCLLCSSSQEHRYHRHRPIEWAA [C7D] showed an abundance fitness of -0.589 ± 0.17.
SSEEQMKGTHRETKKIFCEVDRSLLCLLCSSSQEHRYHRHRPIEWAA [C7K] gave an abundance fitness of -1.08 ± 0.27.
SSEEQMRGTHRETKKIFCEVDRSLLCLLCSSSQEHRYHRHRPIEWAA [C7R] gave an abundance fitness of -0.513 ± 0.12.
SSEEQMYGTHRETKKIFCEVDRSLLCLLCSSSQEHRYHRHRPIEWAA [C7Y] gave an abundance fitness of -0.788 ± 0.11.
SSEEQMCGTIRETKKIFCEVDRSLLCLLCSSSQEHRYHRHRPIEWAA [H10I] gave an abundance fitness of -1 ± 0.26.
For SSEEQMCGTMRETKKIFCEVDRSLLCLLCSSSQEHRYHRHRPIEWAA [H10M], the abundance fitness was -1.06 ± 0.18.
Variant SSEEQMCGTYRETKKIFCEVDRSLLCLLCSSSQEHRYHRHRPIEWAA [H10Y] has an abundance fitness of -0.855 ± 0.16.
SSEEQMCGTPRETKKIFCEVDRSLLCLLCSSSQEHRYHRHRPIEWAA [H10P] gave an abundance fitness of -0.549 ± 0.13.
Variant SSEEQMCGTSRETKKIFCEVDRSLLCLLCSSSQEHRYHRHRPIEWAA [H10S] has an abundance fitness of -0.613 ± 0.099.
Variant SSEEQMCGTDRETKKIFCEVDRSLLCLLCSSSQEHRYHRHRPIEWAA [H10D] has an abundance fitness of -0.303 ± 0.15.
With SSEEQMCGTKRETKKIFCEVDRSLLCLLCSSSQEHRYHRHRPIEWAA [H10K] the abundance fitness was -0.714 ± 0.22.
Work on SSEEQMCGTVRETKKIFCEVDRSLLCLLCSSSQEHRYHRHRPIEWAA [H10V] yielded an abundance fitness of -0.788 ± 0.1.
Variant SSEEQMCGTLRETKKIFCEVDRSLLCLLCSSSQEHRYHRHRPIEWAA [H10L] has an abundance fitness of -0.256 ± 0.1.
SSEEQMCGTFRETKKIFCEVDRSLLCLLCSSSQEHRYHRHRPIEWAA [H10F] gave an abundance fitness of -1.07 ± 0.19.
For SSEEQMCGTRRETKKIFCEVDRSLLCLLCSSSQEHRYHRHRPIEWAA [H10R], the abundance fitness was -0.728 ± 0.095.
Variant SSEEQMCGTCRETKKIFCEVDRSLLCLLCSSSQEHRYHRHRPIEWAA [H10C] has an abundance fitness of -0.523 ± 0.12.
Work on SSEEQMCGTNRETKKIFCEVDRSLLCLLCSSSQEHRYHRHRPIEWAA [H10N] yielded an abundance fitness of -0.836 ± 0.26.
In the case of SSEEQMCGTWRETKKIFCEVDRSLLCLLCSSSQEHRYHRHRPIEWAA [H10W], the abundance fitness is reported as -0.976 ± 0.14.
For SSEEQMCGTTRETKKIFCEVDRSLLCLLCSSSQEHRYHRHRPIEWAA [H10T], the abundance fitness was -0.772 ± 0.16.
SSEEQMCGTGRETKKIFCEVDRSLLCLLCSSSQEHRYHRHRPIEWAA [H10G] gave an abundance fitness of -0.671 ± 0.084.
For SSEEQMCGTQRETKKIFCEVDRSLLCLLCSSSQEHRYHRHRPIEWAA [H10Q], the abundance fitness was -0.757 ± 0.19.
Variant SSEEQMCGTHKETKKIFCEVDRSLLCLLCSSSQEHRYHRHRPIEWAA [R11K] has an abundance fitness of 0.073 ± 0.12.
In the case of SSEEQMCGTHMETKKIFCEVDRSLLCLLCSSSQEHRYHRHRPIEWAA [R11M], the abundance fitness is reported as -0.48 ± 0.15.
Work on SSEEQMCGTHLETKKIFCEVDRSLLCLLCSSSQEHRYHRHRPIEWAA [R11L] yielded an abundance fitness of -0.418 ± 0.11.
With SSEEQMCGTHSETKKIFCEVDRSLLCLLCSSSQEHRYHRHRPIEWAA [R11S] the abundance fitness was -0.185 ± 0.097.
SSEEQMCGTHNETKKIFCEVDRSLLCLLCSSSQEHRYHRHRPIEWAA [R11N] showed an abundance fitness of -0.049 ± 0.17.
SSEEQMCGTHEETKKIFCEVDRSLLCLLCSSSQEHRYHRHRPIEWAA [R11E] showed an abundance fitness of -0.683 ± 0.14.
Work on SSEEQMCGTHCETKKIFCEVDRSLLCLLCSSSQEHRYHRHRPIEWAA [R11C] yielded an abundance fitness of -0.008 ± 0.12.
Work on SSEEQMCGTHTETKKIFCEVDRSLLCLLCSSSQEHRYHRHRPIEWAA [R11T] yielded an abundance fitness of -0.135 ± 0.12.
Variant SSEEQMCGTHVETKKIFCEVDRSLLCLLCSSSQEHRYHRHRPIEWAA [R11V] has an abundance fitness of -0.502 ± 0.11.
In the case of SSEEQMCGTHQETKKIFCEVDRSLLCLLCSSSQEHRYHRHRPIEWAA [R11Q], the abundance fitness is reported as -0.246 ± 0.14.
In the case of SSEEQMCGTHFETKKIFCEVDRSLLCLLCSSSQEHRYHRHRPIEWAA [R11F], the abundance fitness is reported as -0.613 ± 0.29.
With SSEEQMCGTHPETKKIFCEVDRSLLCLLCSSSQEHRYHRHRPIEWAA [R11P] the abundance fitness was -0.441 ± 0.13.
Variant SSEEQMCGTHGETKKIFCEVDRSLLCLLCSSSQEHRYHRHRPIEWAA [R11G] has an abundance fitness of -0.069 ± 0.08.
Work on SSEEQMCGTHIETKKIFCEVDRSLLCLLCSSSQEHRYHRHRPIEWAA [R11I] yielded an abundance fitness of -0.398 ± 0.23.
Variant SSEEQMCGTHHETKKIFCEVDRSLLCLLCSSSQEHRYHRHRPIEWAA [R11H] has an abundance fitness of 0.154 ± 0.17.
Work on SSEEQMCGTHAETKKIFCEVDRSLLCLLCSSSQEHRYHRHRPIEWAA [R11A] yielded an abundance fitness of -0.134 ± 0.097.
